Reference: the supplement of paper PMC7125110
± gives the standard error. For part of these data: Variants at the floor of the assay were thinned out.

B1: glmS ribozyme (parent)
chain: AUAAAAGCGCCAGAACUACAGAAAUGUAGUUGACGAGGAGGAGGUUUAUCGAAUUUUCGGCGGAUGCCUCCAAA

Tests used:
Settings in all cases: with glucosamine-6-phosphate
[1] = variants of: B1; assay: kcat; higher = faster cleavage; RNA array
Outline: (§1)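 Barcoded ribozyme variants on sequenced MiSeq chips were transcribed in situ by E. coli RNA polymerase and followed at 37 °C through a hybridised Cy3 probe. Glucosamine-6-phosphate at 40 μM to 10 mM in HEPES/KCl/Mg(OAc)2 buffer was flowed in, and tiles were imaged over ~14 h. Signals were normalised to baseline and to non-cleaving reference variants, and per-tile medians were fit to one- or two-exponential decays to give kobs. Weighted Michaelis–Menten fits across concentrations gave kcat and KM.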

[2] = variants of: B1; assay: KM; higher = weaker cofactor use; RNA array
Outline: as §1

[3] = variants of: B1; assay: self-cleavage kobs at 160 uM GlcN6P; higher = faster cleavage; RNA array
Outline: as §1

[4] = variants of: B1; assay: self-cleavage kobs at 640 uM GlcN6P; higher = faster cleavage; RNA array
Outline: as §1

[5] = variants of: B1; assay: self-cleavage kobs at 2500 uM GlcN6P; higher = faster cleavage; RNA array
Outline: as §1

[6] = variants of: B1; assay: self-cleavage kobs at 10000 uM GlcN6P; higher = faster cleavage; RNA array
Outline: as §1

[7] = variants of: B1; assay: self-cleavage kobs at 40 uM GlcN6P; higher = faster cleavage; RNA array
Outline: as §1

Variant	kcat [1] [s⁻¹]	KM [2] [µM]	self-cleavage kobs at 160 uM GlcN6P [3] [s⁻¹]	self-cleavage kobs at 640 uM GlcN6P [4] [s⁻¹]	self-cleavage kobs at 2500 uM GlcN6P [5] [s⁻¹]	self-cleavage kobs at 10000 uM GlcN6P [6] [s⁻¹]	self-cleavage kobs at 40 uM GlcN6P [7] [s⁻¹]
U31A A52G	0.00103 ± 0.00022	4620 ± 1600	4.63e-05 ± 1.3e-05	0.000142 ± 2.3e-05	0.000305 ± 4.3e-05	0.000752 ± 7.9e-05	
G13U U47C	7.04e-05 ± 3.2e-06	1030 ± 150		2.85e-05 ± 1.2e-05	4.74e-05 ± 1.2e-05	6.59e-05 ± 1.6e-05	
U47C A52C	4.02e-05 ± 1.2e-06	3020 ± 290	< 1e-05	< 1e-05			
G62U C71A	< 1e-05				< 1e-05		< 1e-05
U46C C58A	0.000527 ± 0.00012			2.77e-05 ± 9.7e-06	7.47e-05 ± 1.3e-05	0.00022 ± 3.4e-05	
G13C A15G	0.000223 ± 1.1e-05	2950 ± 270		4.12e-05 ± 8e-06	9.91e-05 ± 1.3e-05	0.000176 ± 2.8e-05	
G59U G66A	2.67e-05 ± 2.5e-07	3110 ± 100					
A15U C16U	0.00176 ± 0.00028	1750 ± 440	0.000152 ± 3.2e-05	0.000423 ± 9.6e-05	0.000885 ± 0.00016	0.00172 ± 0.00026	4.63e-05 ± 9.6e-06
G41U C70A	0.0306 ± 0.013		0.00721 ± 0.0009	0.0189 ± 0.0026	0.0568 ± 0.016		0.00288 ± 0.00022
C10A A12G	< 1e-05					< 1e-05	< 1e-05
G41U U54G	0.000782 ± 0.00031		0.000463 ± 0.00012	0.000458 ± 9.3e-05	0.00134 ± 0.00026		0.000133 ± 1.6e-05
G41A G66U C70A	0.000127 ± 3e-05			9.26e-05 ± 3.3e-05	6.32e-05 ± 2.8e-05	0.000131 ± 2e-05	
A12C G29A	0.00648 ± 0.0024		0.000322 ± 0.00011	0.00107 ± 0.00022	0.00331 ± 0.00067	0.00557 ± 0.00097	0.000188 ± 3.3e-05
G29C G66C	2.22e-05 ± 9.6e-06						
G13U U57C	4.31e-05 ± 6.8e-06				3.41e-05 ± 1.3e-05	3.63e-05 ± 1.8e-05	
A39U U55A	0.0539 ± 0.0098	5710 ± 1200	0.00146 ± 0.00024	0.00564 ± 0.001	0.0142 ± 0.0033	0.0376 ± 0.0091	0.000396 ± 9.4e-05
G66C C67U	2.82e-05 ± 1.9e-06	1800 ± 520				2.37e-05 ± 7.3e-06	
C50U A64G	0.000283 ± 5e-05			2.41e-05 ± 1e-05	5.38e-05 ± 7.8e-06	0.000141 ± 1.7e-05	
U45C C67A	0.00652 ± 0.00083	2490 ± 470	0.000424 ± 0.00012	0.00119 ± 0.00026	0.00392 ± 0.0013	0.00519 ± 0.001	0.000122 ± 4.8e-05
U69A C70A	3.8e-05 ± 4.6e-06				4.37e-05 ± 1.1e-05	3.27e-05 ± 9.4e-06	
G40A A64G	0.00353 ± 0.0011	3100 ± 1400	0.000131 ± 3.3e-05	0.000538 ± 9e-05	0.00188 ± 0.00029	0.00259 ± 0.00038	7.68e-05 ± 1.3e-05
C11U A52U	5.56e-05 ± 4.4e-06	1620 ± 690			3.57e-05 ± 1.8e-05	4.77e-05 ± 8.4e-06	
C16G G66U	0.000189 ± 5.3e-06	2380 ± 200		3.85e-05 ± 1.1e-05	9.99e-05 ± 1.6e-05	0.000152 ± 1.3e-05	

Variant	kcat [1] [s⁻¹]	KM [2] [µM]	self-cleavage kobs at 160 uM GlcN6P [3] [s⁻¹]	self-cleavage kobs at 640 uM GlcN6P [4] [s⁻¹]	self-cleavage kobs at 2500 uM GlcN6P [5] [s⁻¹]	self-cleavage kobs at 10000 uM GlcN6P [6] [s⁻¹]	self-cleavage kobs at 40 uM GlcN6P [7] [s⁻¹]
G29U G38A	< 1e-05		< 1e-05	< 1e-05	< 1e-05		
U31A A42G U47A	0.00933 ± 0.0047			0.00346 ± 0.001		0.00844 ± 0.0039	0.000345 ± 9.2e-05
U47A A48U	0.000219 ± 1.3e-05	1570 ± 190		6.18e-05 ± 1e-05	0.000143 ± 2.2e-05	0.000181 ± 3.1e-05	
A53C A64G	0.00338 ± 0.00072	1710 ± 540	0.000218 ± 9.8e-05	0.00177 ± 0.00058	0.00249 ± 0.0011	0.00277 ± 0.00054	7.76e-05 ± 1.7e-05
U65A C67A	9.68e-05 ± 1.3e-05		9.4e-05 ± 8.1e-06	8.78e-05 ± 7.6e-06			5.89e-05 ± 6.3e-06
A42U U55G	0.000182 ± 1.6e-05	577 ± 150	5.02e-05 ± 1.6e-05	8.8e-05 ± 1.4e-05	0.000164 ± 2.3e-05	0.000167 ± 2.3e-05	
A39C G43U C68U	9.32e-05 ± 1.5e-05	1780 ± 810			5.95e-05 ± 1.4e-05	7.63e-05 ± 1.8e-05	
A15U U46A	0.000378 ± 2.9e-05	2050 ± 300	3.16e-05 ± 1.1e-05	8.53e-05 ± 9.5e-06	0.000225 ± 2.3e-05	0.000303 ± 3.2e-05	
A14U A64U	1.88e-05 ± 5.9e-07	8870 ± 560					
A39C G66U	0.00114 ± 0.00017	3090 ± 910	8.13e-05 ± 2.3e-05	0.000198 ± 3.9e-05	0.000424 ± 8.2e-05	0.000908 ± 9.9e-05	
U49G C50G	< 1e-05			< 1e-05			
U57G C61G	1.3e-05 ± 4.8e-06						
C11G G37U	1.74e-05 ± 6.6e-06				< 1e-05	< 1e-05	< 1e-05
A14C C58A	0.000221 ± 1.4e-05	3250 ± 500		3.29e-05 ± 1.1e-05	0.000102 ± 1.6e-05	0.000165 ± 1.7e-05	
A36U C67U	< 1e-05						
A12G C58A	0.000476 ± 0.0001	1510 ± 610	4.69e-05 ± 1.3e-05	0.000154 ± 1.7e-05	0.000245 ± 3.3e-05	0.000523 ± 7.4e-05	
C50U G59U	< 1e-05	71.2 ± 32		< 1e-05		< 1e-05	< 1e-05
G13U C71A	0.000178 ± 1.7e-05	1130 ± 300		5.95e-05 ± 1.2e-05	0.000151 ± 2.5e-05	0.000154 ± 1.8e-05	
G40C A52U	8.17e-05 ± 1.4e-05				7.08e-05 ± 9.7e-06	7.15e-05 ± 8.3e-06	
A15G G37U U54A U55A G60C C68G	2.16e-05 ± 6.5e-06						
G37C U54C	6.94e-05 ± 3e-05					3.48e-05 ± 7.4e-06	
U31C U65A	0.000435 ± 5.4e-05	2000 ± 480	3.17e-05 ± 1.3e-05	0.000114 ± 1.8e-05	0.000217 ± 3.2e-05	0.000385 ± 5.2e-05	
C58A G60C C67G	1.21e-05 ± 3.8e-06						

Variant	kcat [1] [s⁻¹]	KM [2] [µM]	self-cleavage kobs at 160 uM GlcN6P [3] [s⁻¹]	self-cleavage kobs at 640 uM GlcN6P [4] [s⁻¹]	self-cleavage kobs at 2500 uM GlcN6P [5] [s⁻¹]	self-cleavage kobs at 10000 uM GlcN6P [6] [s⁻¹]	self-cleavage kobs at 40 uM GlcN6P [7] [s⁻¹]
U47A C58G	0.000134 ± 1.1e-05	1740 ± 440		4.54e-05 ± 1.7e-05	7.52e-05 ± 1.2e-05	0.000117 ± 1.5e-05	
G40A A42G	0.00697 ± 0.0023	1900 ± 820	0.00046 ± 9.7e-05	0.00157 ± 0.00024	0.00363 ± 0.00075	0.00783 ± 0.0018	0.000182 ± 2.4e-05
A12C G60C	< 1e-05			< 1e-05		< 1e-05	
G9U A33U	< 1e-05		< 1e-05	< 1e-05		< 1e-05	
G41U U56A	0.00219 ± 0.00072	4700 ± 2000	7.37e-05 ± 1.6e-05	0.000234 ± 3.5e-05	0.000769 ± 0.0001	0.00153 ± 0.00029	3.42e-05 ± 8.2e-06
U57C U65G	3.4e-05 ± 3.5e-06				3.03e-05 ± 1.3e-05	3.07e-05 ± 1.1e-05	
A52U U54G	0.000276 ± 3.6e-05	3750 ± 860		4.52e-05 ± 9.2e-06	0.000107 ± 1e-05	0.000207 ± 2.8e-05	
U49G A64U	1.18e-05 ± 9.4e-07		< 1e-05				< 1e-05
A64G C71U	0.00692 ± 0.0014	2040 ± 540	0.000417 ± 4.5e-05	0.00177 ± 0.00015	0.00386 ± 0.00036	0.00552 ± 0.00084	0.000158 ± 1.6e-05
U46G G66A	0.00746 ± 0.0016	2580 ± 720		0.00155 ± 0.00019	0.00502 ± 0.0011	0.00541 ± 0.001	0.000106 ± 1.6e-05
U54G U69A	0.000109 ± 1.4e-05			0.000146 ± 3e-05	9.9e-05 ± 1.8e-05	0.000103 ± 1.9e-05	5.13e-05 ± 1.4e-05
A12C U30C C71U	0.00195 ± 0.00038	3540 ± 1200		0.000258 ± 8.1e-05	0.000922 ± 0.00025	0.00141 ± 0.00029	3.06e-05 ± 1.5e-05
A33C U46A	3.08e-05 ± 7.5e-06		< 1e-05		3.48e-05 ± 1.7e-05		
A15U U30G	0.0605 ± 0.018	3400 ± 1200	0.00242 ± 0.00032	0.00977 ± 0.0011	0.0219 ± 0.0035	0.0582 ± 0.012	0.000777 ± 7.3e-05
G59U C68U	1.5e-05 ± 6.2e-06				2.67e-05 ± 1.3e-05		< 1e-05
C50G G62A	0.000121 ± 5.5e-05		0.000128 ± 2.4e-05		0.000168 ± 3.3e-05		3.58e-05 ± 1.1e-05
C10U U30G	< 1e-05		< 1e-05	< 1e-05			< 1e-05
U46G U47C	0.00353 ± 0.0011	981 ± 440	0.000744 ± 0.00015	0.00158 ± 0.00026	0.00225 ± 0.00047	0.00332 ± 0.0012	0.000104 ± 2.7e-05
G29C A39U	0.00205 ± 0.00072		6.75e-05 ± 1.6e-05	0.000323 ± 6.3e-05	0.000753 ± 0.00014	0.00153 ± 0.00022	5.54e-05 ± 1.3e-05
G29U G37C	1.83e-05 ± 2.2e-06						
U30C C67G	1.07e-05 ± 2.3e-06						< 1e-05
